# According to the DeepSol protein solubility set:
# Experiment: soluble on expression in E. coli; label from the status in PepcDB or PDB records
row,Sequence,soluble on expression in E. coli
1,MNRRQFLGSAAAVSLASAASFARAHGHADYHHHHDMQPAAASAYTAVRQTAAHCLDAGQVCLTHCLSLLTQGDTSMSDCAVAVRQMLALCGAVHDLAAQNSPLTRDAAKVCLEACKQCAKACKEHSAHHAECKACYESCLDCIKECEKLAALEHHHHHH,soluble
2,MSLGRFVRHALITAGTKGLGKQVTEKLLAKGYSVTVTYHSDTTAMETMKETYKDVEERLQFVQADVTKKEDLHKIVEEAMSHFGKIDFLINNAGPYVFERKKLVDYEEDEWNEMIQGNLTAVFHLLKLVVPVMRKQNFGRIINYGFQGADSAPGWIYRSAFAAAKVGLVSLTKTVAYEEAEYGITANMVCPGDIIGEMKEATIQEARQLKEHNTPIGRSGTGEDIARTISFLCEDDSDMITGTIIEVTGAVDVIHREGHHHHHH,soluble
3,MNGTKQQRRRGDTRQRIQDVALGLFAEQGYEKTSLREIAESLDVTKAALYYHFKTKEEILVSIFEDLSRPLEDLIEWGREQPHTLETKQEIIRRYSEALAGAAPLFRFMQENQATVRDLRIGELFKHRMFGLRDILMDPEADLVDQVRCISALFTLHAGMFVLRDLEGDPEEQRAAVLEVATDLITQAHRGAAGA,not soluble
4,MGSDKIHHHHHHMSDEGRHKPTSAPNRVFMMKGMDKLRYQQDFLNIRPIFTAGEQEYLTGLSDRLPLSVLTGSVRNIEEIGIDFVYSSAKLEGNTYNQYDTQALLKLGQTAGGKLYSDAVMLINLRESYRHLLSGLDSPEPFDWLDFLKTTHSLISENLLEKGSGGVVRRDSVTISGTDYTPLSNPQSLDTELKWLLQEAPKIENPFDRAVYLHNNLAYLQYFKDCNKRTARNCMTLSLMRSGFFPCVFSPDSYPAYAEAVVAYYETGDYGLFKKYFISAYENTVNKYGPQPDMDIFRNFSL,not soluble
5,GPGSMAKSSRSKWKKMHRRQRAQAEATNTVKRICLLNKKLKLTVKGGISAVPPQEPEKRFHFLNPVLDSRVPNTRKNLNNNYRAELNHVEYDYTKPLKLAPPKTNMYGKTDVDAPHPMTVMYETIDADTPLAGHALTKADMERLARRQAQQESEASAAVADAEKDASKEDGDNADDGPEEYVFGMEDAAPRRARGQHKTSAKKKGSVAPKALKGAASASVGASSSVSETGSSSRMLAAAAAAMTNEEEEADHRTRNGGVTAVNKIASMQTMRKKNGTMVSAGGASKMKKVGQLGGSSGTRVVSSGGKVARKDVGNAKSGSKR,soluble
6,GPGSAPSKDGHVFEMSRPEQAAYGLAMSLVRWHAFNRFCANCGTATDPTRDVGFSRFCPKCRKQHFPQLVPAVLVAVLDGKGNVILSQRRKESKVLTLLSGFVLHGESAEETVRREVEEESGARVSKVRYIGSQPWPYPYLMMMCYYAVADASPSLVVDASELERVMWVSKQDVRRALEGQHSDMELRGPGTTPYAMLKPWVDGKVDDRGRITKPQSQL,not soluble
7,MYETIVSSRGSSFFVSQGKTGEQVYRCQVNREQCPNTLPIDKHIDLVRKYIRAFLYRFAGMTSLNETSSRRMIFLVVPSFCVIEIIP,not soluble
8,YVLAVTACPTGIAHTYMARDALKKQAEKMNIKIKVETNGSSGIKNHLTEQDIERATGIIVAADVHVETDRFDGKNVVEVPVADGIKRPEELINTALDTNRKPF,not soluble
9,NDPDADRFALAARKPDGGYKMLTGDQVGTLFGHYLLTHTEASGKLVGNTIVSSTLLKKIAESMGAEYFQTLTGFKWLTNVAMQKETKEKQFLFAYEEALGYTIGSQVWDKDGLSALVAFAQLTAELATQGKCVWDQLESIYRQHGIHIN,not soluble
10,STATIDRRLSTLNPNAPVFDPVEFREVEDFSPKWWDLVTTSKWFRDFWLSANSENEFLGGDDFSVMEEEFEEMIASSDGGSMADTVTEADVASYLKMLLNIAESTKEKIYRSKVSSCSPKYNQKKYMNPNFNCRRNHHIYQPR,soluble
11,MKIEEVRFGLVKIDGKEFDHDIVIYPSGRIERRMKEISKKKHGTSHKLDPEELEKYLVEDFDVLLVGTGIYGMLSLLPESKKLVEDKEVIEKPTKEALKLLEELWGKKRILAIIHVTC,soluble
12,GMREDMKDNVVKDKSLEFAVRIVNLYKFLVNEQKEFVMSKQILRSGTSIGANIREAEQAQSRADFINKLNIALKEANETEYWLELLIRTEYITREQYESINNDSTEINKLLISIIKTTKNN,soluble
13,MGSDKIHHHHHHMQSNRLTESSAEIHDMSLRIYQTPVQHLPEDLYVPPQAFAIWLEQFAGPLDFLLYLVKKNNVDLTRMPILPITEQYLAYISKLDTNHFELAGDYLLMASTLIAIKTELLLPMPEMPTDERDPKAELIERLEEYTQVKAASQRLDNLIRLERDVFLAMVSMPNQDIMNSELPSYSPTLLIDSLFKMQLQPDYQMHSIKVDAVPLADRIASISRQLSTDGARSFHELLDKAQGKIGVVVSFVAVLELIKRQLIGVVANNVDSGVSTATNADGSLSTHSDLLEKLTLEWLA,not soluble
14,MGSSHHHHHHGKTIFVIVPTNEEQVAFLEALAKQDELNFDWQNPPTEPGQPVVILIPSDMVEWFLEMLKAKGIPFTVYVEEGGSENLYFQGGGGGGSDGAIVPREGSPQSISEELERRRSEARNLELRVSRKEAELQRAKEEQELLKEMRTVNEMIIRKKERQLSEGVANGVKISPESLAELNALGDALRLENLKTVELQREADVTSHQMEEVERSLENTEKQLLEAKRSTGWDVDRNSARTETAMESAFKEKKRLLSSLTSEQRTLSELSERLKQHAEECQAKVDAAEGMDERFAEAEEQLRQANARYRELIEEVMSNERIQKKTERVLTVANTQDKYKCIRQLEGEKRALHNDLSKLRETNVSNSRSILSLEVRLRQLETRLEAVNGFLREVFAEVEDDEPMDNVPEGAVEVPLALFEELSAALELSRETVVQRDDQLDEHDCKIEQMERKVVILQNAIASRAVSAQVQARGRDTQQRSMYANHSRRRSQLRTERDQLAVENTVLRNRLALL,not soluble
15,MENQLTKSVEERTFQYQDSLPSLPVPALEESLKKYLESVKPFANEDEYKKTEEIVQKFQEGAGKRLHQKLLERARGKRNWLEEWWLNVAYLDVRIPSQLNVNFVGPCPHFEHYWPAREGTQLERGSMMLWHNLNYWQLLRREKLPVHKSGNTPLDMNQFRMLFSTCKVPGITRDSIMNYFKTESEGHCPTHIAVLCRGRAFVFDVLHEGCLITPPELLRQLTYIHKKCSNEPVGPSIAALTSEERTRWAKAREYLISLDPENLTLLEKIQTSLFVYSIEDSSPHATPEEYSQVFEMLLGGDPSVRWGDKSYNLISFANGIFGCCCDHAPYDAMVMVNIAHYVDERVLETEGRWKGSEKVRDIPLPEELVFTVDEKILNDVSQAKAQHLKAASDLQIAASTFTSFGKKLTKEEALHPDTFIQLALQLAYYRLHGRPGCCYETAMTRYFYHGRTETVRSCTVEAVRWCQSMQDPSASLLERQQKMLEAFAKHNKMMKDCSHGKGFDRHLLGLLLIAKEEGLPVPELFEDPLFSRSGGGGNFVLSTSLVGYLRVQGVVVPMVHNGYGFFYHIRDDRFVVACSSWRSCPETDAEKLVQMIFHAFHDMIQLMNTAHL,soluble
16,MVLGLASFPESLSSQSETATQPRRPSVKWDLGSDYRKGTEETTASGSNFRRERLDSQPDLGLHVQPQIYFLRPRSPLPKLLFSLMNTNDANVKKLLPKSHLSRVIIRDNLNAQRICEMEMKASDKTKRKMSYLYDHLKKKFMMDQLRKMIRWRRDSQSTQDYLDKERV,not soluble
17,KDYDAYLSYTKVDPDQWNQETGEEERFALEILPDMLEKHYGYKLFIPDRDLIPTGTYIEDVARCVDQSKRLIIVMTPNYVVRRGWSIFELETRLRNMLVTGEIKVILIECSELRGIMNYQEVEALKHTIKLLTVIKWHGPKCNKLNSKFWKRLQYEMPF,soluble
18,MSLYYVTEDDVDKNFDMKAAINAVREAFEEYGKGRAYSSTRVRTFSQDGVLNTMPAAMEKYHISGLKSYYATRNGAKFVVVLFDTAADELLAIIEANRLGQIRTGAVTAYATSILHKNVEIFAIIGSGFQAETQLEGMLKVANPTEIRVYSRNQEHARNFSERSSKKFGVSIRAVESAEAALIGADTITTITNSNVPIVYRKYLGDEYHINLAGSNYINRREAESAVLSDANIVVTEHLEQSLIESVEISEYVKLGGKPIELKDVAVDPTRYSKFHRTVFKSMGIGLEDIISGYAVLKNMGIIEGHHHHHH,soluble
19,MGSDKIHHHHHHMNFIKEKHIEIVLNQTCLNPKLSVFLPVIKKTGVQLISVFHSQPYGMYGIKAFPKICNVFGVDKVGNLVDVLIHFAFKLKYGRYLKRMLQYSDKLVMLSDKFINEFLYFSGKKYAEKMLSISNPVTINGGGSEKKEKIVLFVGRISQEKGVDKILEVWRGICHEEKYKEWRLVIVGDGEKRKQMEKYAMDMELINYSFEGFQKPDGYYDKAKIFCMASAFEGFGLVLVEAMSYGVVPMAFNSFSNCSDIIDDDKNGILVTPFSINEYRKKIIELIENDEKWMKMSTCSINKSKEYSIECIGAKWLDLFYSLLNNKVT,not soluble
20,MGSDKIHHHHHHLIYIYYPELRLFNGDEITQKFVKGEVVEAHEVLRLKHSIATYRSRLCDISWFMRCLNEPIARQANQEDSCTGRFWEGRFKSQALLDEAAVLACMAYVDLNPIRAKMASTPEQSDHTSIQLRIRAALKGEQPNNLLPFIGNERQFQPKGITFALKDYLELVDDTGRIIRNDKRGSVSANSAKLLTRLNISQENWLKLTTEFGKLFHGPVGTLQELTSYCEHLEKRRRHFASCCQHLKAG,not soluble
21,MIITTSRKPSQRTRSLVNDLARVFNFKILNRGKIPLSELIENKDDMIIVEELKGNPGRLKIFNFENNKILSMNLSLKLQREVSGKAFKNSGKLGSKFDKNTEHLKEFFFEYLFKKLSNYKEENFEVVITFKTVDESTFYIEVHKGSENMGPSLKIKTVKILDIELEHHHHHH,not soluble
22,MSDAMPLDQTLEQLTQDEWIDIPQGWSQGRTIYGGLVAGLLMHKALSVMNDESKNLLSTSITFVGPVNEGRVRLTVEILRQGKSVTTIEARLWQDQAVQTILIASFGQPRSSEIFVLEHHHHHH,soluble
23,MDIAEQLIQNAGKRSTPVRSAVLGVLLNAEDVLSHSEVLEHLQQLGAFDRVTVYRALDWLVTQGLVHKVAGAGRAWRFQVTRSESMHRHAHFQCHHCHKVFCLPEVQPVLPKELPSNFSIDSIELNIKGICADCGRAMMSQ,not soluble
24,MSLDRRAQQRLALGEFLRARRRAAVRAELGLPDMPRSRTSGLRREEVAVQAGVSVTWYTWLEQGRDINPSRQVLDAIARALRLSPSEHDYVLALGGYTVDHAVTAGPPPPQIQRFLDALGGHPAFAITSDWGIAAWNTAYAALYPNIERVPPPDRNLLWLVFMDPAIRELLPDWDADSRRFLAEFRADAGPMVGEPSYTALVSRLSSESPHFATAWRAADIERFTSRERLFRHPVVGELRLEHHQVAPVDVPDIQIVAYLPEPGSVAAERLRRLVGQAGDTAREGHHHHHH,soluble
25,MRYTGYMMEVRQLRHFVTVAEWESFTLAAQQLHIAQPALSISIKKFEQQLGVTLFKRDERKVALTHEGEVLLEHAKRILQQVNDAQLAVDELKGVVKGEVRLGAPSMMGSYFFPQIIMAFKSHFPNLKMTVIEAGTQSIRRMLLSGELDIGVILNHDLPDDLAADPLLSSQMVAVVGKNHELAERRHLTFAEFFEHELVMFKPGYFHRDFIDKVCREHKFTADFSFETNLLPMILSIVKHEYAITALLELVTSNEPEVKAIPFEPPVWLDLALAWRKEGYLSNADRTFIEFVKKYV,not soluble
26,INQPVIETERFDLRPLRKSDMGLIEHYARDERVARMTTSIPHPLPPGMAEGFVARAMSEERTEDVWAMDATRDGGPELMGLISLERMDRNQSEVGYWVAPVFWNTGIASMAVEALVNANPLGNATMFASVFQDNPASARVLTHCGFQYLGDAESYSVARDAAVPTWTYSRKL,soluble
